The record followed here is PMC5489419 (Molecular cell, 2017).

The target of the assay is WWP2 N-terminal fragment X (C2 domain, WW1 domain, WW2 domain) of TEV-cleaved WWP2 (human, UniProt O00308 1-395). As to the kind of experiment: SEC.

B1: WWP2 C-terminal fragment Y (WW3 domain, WW4 domain, HECT domain) of TEV-cleaved WWP2 (domain or fragment)
chain: not shown
Turning to B1, the binding result is recorded as “binds”.
